Source: publication PMC9646525, “Cryo-EM structure of the SEA complex” (Nature, 2022)

T1: Sea2 (S. cerevisiae (endogenous in yeast …, UniProt Q08281 1-1341))
T1 construct: Sea2, S. cerevisiae, endogenous subunit of the SEAC (SEACAT, core); Native protein of the purified complex; two copies in the SEAC; source: endogenous, yeast cells expressing Sea4-TAP; in lysate and co-purified with Sea4-TAP (IgG Dynabeads, TEV elution)
T1 sequence (looked up): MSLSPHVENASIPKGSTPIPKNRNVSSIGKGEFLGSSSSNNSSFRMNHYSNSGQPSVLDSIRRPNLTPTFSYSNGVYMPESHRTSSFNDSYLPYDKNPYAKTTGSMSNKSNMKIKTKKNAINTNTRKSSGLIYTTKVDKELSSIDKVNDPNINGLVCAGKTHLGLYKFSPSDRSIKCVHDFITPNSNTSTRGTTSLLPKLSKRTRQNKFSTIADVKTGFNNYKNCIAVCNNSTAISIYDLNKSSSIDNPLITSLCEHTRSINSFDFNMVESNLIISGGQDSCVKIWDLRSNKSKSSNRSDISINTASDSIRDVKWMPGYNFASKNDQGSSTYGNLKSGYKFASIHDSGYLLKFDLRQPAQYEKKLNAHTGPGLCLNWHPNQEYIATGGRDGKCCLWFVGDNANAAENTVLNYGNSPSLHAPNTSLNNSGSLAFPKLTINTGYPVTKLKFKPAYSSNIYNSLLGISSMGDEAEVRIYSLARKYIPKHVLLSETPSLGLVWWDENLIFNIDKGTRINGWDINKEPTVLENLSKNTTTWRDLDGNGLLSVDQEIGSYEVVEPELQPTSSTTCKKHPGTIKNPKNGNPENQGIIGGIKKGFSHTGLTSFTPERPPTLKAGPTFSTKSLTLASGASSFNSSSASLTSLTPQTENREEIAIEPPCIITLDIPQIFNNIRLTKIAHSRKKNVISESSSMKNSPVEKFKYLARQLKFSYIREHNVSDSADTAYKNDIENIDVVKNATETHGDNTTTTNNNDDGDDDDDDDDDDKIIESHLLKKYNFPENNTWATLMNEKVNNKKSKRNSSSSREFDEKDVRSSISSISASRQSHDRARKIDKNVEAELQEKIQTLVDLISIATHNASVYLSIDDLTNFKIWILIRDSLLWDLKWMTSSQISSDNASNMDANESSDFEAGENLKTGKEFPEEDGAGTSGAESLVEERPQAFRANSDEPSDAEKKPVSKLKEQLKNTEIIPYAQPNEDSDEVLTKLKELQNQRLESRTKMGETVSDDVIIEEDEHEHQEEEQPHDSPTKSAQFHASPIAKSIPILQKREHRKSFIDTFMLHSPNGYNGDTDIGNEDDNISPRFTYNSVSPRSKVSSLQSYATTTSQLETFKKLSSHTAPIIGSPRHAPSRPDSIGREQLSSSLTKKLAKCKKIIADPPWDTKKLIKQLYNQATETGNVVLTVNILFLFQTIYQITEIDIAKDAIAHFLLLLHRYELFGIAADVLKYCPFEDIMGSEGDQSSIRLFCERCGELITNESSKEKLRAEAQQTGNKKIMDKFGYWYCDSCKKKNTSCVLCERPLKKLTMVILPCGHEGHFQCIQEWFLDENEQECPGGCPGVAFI

B1: Npr2 (natural protein, UniProt P39923 1-615, looked up)
chain: MLSYFQGFVPIHTIFYSVFHPTEGSKIKYEFPPNNLKNHGINFNTFKNYIIPKPILCHKLITFKYGTYRIVCYPVTINSPIYARNFFSFNFVFVFPYDCETSPYEPAITRLGKMFKVLEEQNQLLSKSERDPVFFDLKVLENSTTTPSTAGPSSTPNPSSNTTPTHPTSEKDTKDMRSSRYSDLIKDLGLPQSAFSIQDLLMRIFQDLNNYSECLIPIDEGNAVDIKIFPLLRPPTTCVSLEDVPLSSVNLKKIIDVNWDPTMMSIVPYIDGLNSIAKISKLSNSDPGLVIECIRHLIYYKCVTLSDIFQFSNIYAPSSLIRNFLTDPLMASDCQSYVTFPEVSKISNLPLNKSLGSGDQDSPSFSVRRKSKSSSIPSNPDSRTTSFSSTSRVSQNSSLNSSFSSIYKDWRQSQTSCSSSNIHVINNRNRFLPTRSCLFDLYRSLSQGQTLKTWYESKYMILKENNIDIRRFITFGLEKRIIYRCYSFPVMINAGSREPKEMTPIITKDLVNNDKLLEKRNHNHLLSATGSRNTAQSGNLKPERPSKVSFEMQRVSSLATGKSTMPKLSDEEEGILEESIRNAETFDKICVLLSKPKLEVESYLNELGEFKVINS
notes: Npr2, S. cerevisiae, endogenous subunit of the SEAC (SEACIT, wing); Native protein of the purified complex; two copies in the SEAC; source: endogenous, yeast cells expressing Sea4-TAP or Sea1-TAP; in lysate and co-purified with the tagged subunit (IgG Dynabeads, TEV elution)
B2: Sea3 (natural protein, UniProt Q03897 1-1148, looked up)
chain: MCSSINEGPYNSPTFGKSLSLKVDGGFNAVSINPSGRDIVLASRQGLYIIDLDDPFTPPRWLHHITPWQVADVQWSPHPAKPYWIVSTSNQKAIIWNLAKSSSNAIEFVLHGHSRAITDINFNPQHPDVLATCSVDTYVHAWDMRSPHRPFYSTSSWRSAASQVKWNYKDPNVLASSHGNDIFVWDLRKGSTPLCSLKGHVSSVNSIDFNRFKYSEIMSSSNDGTVKFWDYSKSTTESKRTVTTNFPIWRGRYLPFGEGYCIMPMVGGNNAVYLINLCDDDDSEQNKKTKLQPIYAFKGHSDRVIDFLWRSRHTCDGDYDDREFQLVTWSKDCDLKLWPISDSIYGKVNFDRGKRLEEKLPDYDYCSYNKEPENRENVQKNEFRRLRENFVTTSGLKKNKTNHITWLSGIRMNSATSQEDLFNETKIQNLGEEVSAIGHKFPKVVFEKISVSTRELCLTLNGPWSEENPDDYIFLRISINFPLNYPNKGDPPKFTIEENSNLTMSKRQEILSNLATIGQKYTDSNLYCLEPCIRFVLGEKVSLEDIEEGQEPLLNFDIADHIDFEELSSLDSSYSDSQNPENLSSQSDIESYKEALVFPDTSNQGLDFGRNLALDTTPVPNGCGSCWTATGELFCFFANEKKPEKKQNAIIKLSQKEAGVEKHPFKIEPQVLYDKEVDSSVITAADELKARPKRYVDTLGLGGGTNGDSRTYFDDETSSDDSFDSVADDWDDILRNDIIVRTKIPILRGNFKAFSSVHSESGKTVESTKKNKNLVISKNFSSLLSDRKELALEYLFMDATPEGFARNNALVAEKFDLDEISHCWQILSDMLIDQSDYDPYTTIWNNHPMGIKWFIKEAIVYFERQQNLQMLAMLCCVILSARRKKIPARYYGQELENMEGTIVFNDNESQNTSFWKGSDAFSTRSRSSTVTPNFYGNHLRGKNIHGGDNSSIRSDDHHARLRTHNTLNGSSKFTEPAQKQGSRAISSSPFHSRMPDIKVELLHDDIIEAYEQEDLLHLEVSDIPKFQTYIYQYSKLLFRWGLPLERVKILKVSTDFRSSYSSQGIPPNNNKKSPYNGVLTHWIENNEFGEEKFLARNCNYCDLRVTRSSFICGNCQHVLHSSCARIWWEIGDECPSGCGCNCPEMFDA
notes: Sea3, S. cerevisiae, endogenous subunit of the SEAC; Sea3^SIP (Sea3^Nter) lies in the wing, Sea3^SAP (Sea3^Cter) in the core; Native protein of the purified complex; two copies in the SEAC; source: endogenous, yeast cells expressing Sea4-TAP; in lysate and co-purified with Sea4-TAP (IgG Dynabeads, TEV elution)
B3: Sec13 (natural protein, UniProt Q04491 1-297, looked up)
chain: MVVIANAHNELIHDAVLDYYGKRLATCSSDKTIKIFEVEGETHKLIDTLTGHEGPVWRVDWAHPKFGTILASCSYDGKVLIWKEENGRWSQIAVHAVHSASVNSVQWAPHEYGPLLLVASSDGKVSVVEFKENGTTSPIIIDAHAIGVNSASWAPATIEEDGEHNGTKESRKFVTGGADNLVKIWKYNSDAQTYVLESTLEGHSDWVRDVAWSPTVLLRSYLASVSQDRTCIIWTQDNEQGPWKKTLLKEEKFPDVLWRASWSLSGNVLALSGGDNKVTLWKENLEGKWEPAGEVHQ
notes: Sec13, S. cerevisiae, endogenous subunit of the SEAC (SEACAT, core); Native protein of the purified complex; two copies in the SEAC; source: endogenous, yeast cells expressing Sea4-TAP; in lysate and co-purified with Sea4-TAP (IgG Dynabeads, TEV elution)

How the values were obtained:
Test in all cases: cryo-EM structure; endogenous SEAC purified from yeast via Sea4-TAP (IgG Dynabeads, TEV elution in 20 mM HEPES-NaOH pH 7.4, 300 mM NaCl, 2 mM DTT), on graphene-oxide-coated grids
Details in all cases: both partners purified
[1] = biological target: T2, Sea1 (S. cerevisiae (endogenous in yeast …, UniProt P47170 1-1584))
T2 construct: Sea1 (Iml1), S. cerevisiae, endogenous subunit of the SEAC (SEACIT, wing); Native protein of the purified complex; two copies in the SEAC; also called Iml1; Sea1/Iml1; source: endogenous, yeast cells expressing Sea4-TAP; in lysate and co-purified with Sea4-TAP (IgG Dynabeads, TEV elution)

[2] = biological target: B2
[3] = biological target: T1, Sea2

T2 sequence (P47170 whole entry): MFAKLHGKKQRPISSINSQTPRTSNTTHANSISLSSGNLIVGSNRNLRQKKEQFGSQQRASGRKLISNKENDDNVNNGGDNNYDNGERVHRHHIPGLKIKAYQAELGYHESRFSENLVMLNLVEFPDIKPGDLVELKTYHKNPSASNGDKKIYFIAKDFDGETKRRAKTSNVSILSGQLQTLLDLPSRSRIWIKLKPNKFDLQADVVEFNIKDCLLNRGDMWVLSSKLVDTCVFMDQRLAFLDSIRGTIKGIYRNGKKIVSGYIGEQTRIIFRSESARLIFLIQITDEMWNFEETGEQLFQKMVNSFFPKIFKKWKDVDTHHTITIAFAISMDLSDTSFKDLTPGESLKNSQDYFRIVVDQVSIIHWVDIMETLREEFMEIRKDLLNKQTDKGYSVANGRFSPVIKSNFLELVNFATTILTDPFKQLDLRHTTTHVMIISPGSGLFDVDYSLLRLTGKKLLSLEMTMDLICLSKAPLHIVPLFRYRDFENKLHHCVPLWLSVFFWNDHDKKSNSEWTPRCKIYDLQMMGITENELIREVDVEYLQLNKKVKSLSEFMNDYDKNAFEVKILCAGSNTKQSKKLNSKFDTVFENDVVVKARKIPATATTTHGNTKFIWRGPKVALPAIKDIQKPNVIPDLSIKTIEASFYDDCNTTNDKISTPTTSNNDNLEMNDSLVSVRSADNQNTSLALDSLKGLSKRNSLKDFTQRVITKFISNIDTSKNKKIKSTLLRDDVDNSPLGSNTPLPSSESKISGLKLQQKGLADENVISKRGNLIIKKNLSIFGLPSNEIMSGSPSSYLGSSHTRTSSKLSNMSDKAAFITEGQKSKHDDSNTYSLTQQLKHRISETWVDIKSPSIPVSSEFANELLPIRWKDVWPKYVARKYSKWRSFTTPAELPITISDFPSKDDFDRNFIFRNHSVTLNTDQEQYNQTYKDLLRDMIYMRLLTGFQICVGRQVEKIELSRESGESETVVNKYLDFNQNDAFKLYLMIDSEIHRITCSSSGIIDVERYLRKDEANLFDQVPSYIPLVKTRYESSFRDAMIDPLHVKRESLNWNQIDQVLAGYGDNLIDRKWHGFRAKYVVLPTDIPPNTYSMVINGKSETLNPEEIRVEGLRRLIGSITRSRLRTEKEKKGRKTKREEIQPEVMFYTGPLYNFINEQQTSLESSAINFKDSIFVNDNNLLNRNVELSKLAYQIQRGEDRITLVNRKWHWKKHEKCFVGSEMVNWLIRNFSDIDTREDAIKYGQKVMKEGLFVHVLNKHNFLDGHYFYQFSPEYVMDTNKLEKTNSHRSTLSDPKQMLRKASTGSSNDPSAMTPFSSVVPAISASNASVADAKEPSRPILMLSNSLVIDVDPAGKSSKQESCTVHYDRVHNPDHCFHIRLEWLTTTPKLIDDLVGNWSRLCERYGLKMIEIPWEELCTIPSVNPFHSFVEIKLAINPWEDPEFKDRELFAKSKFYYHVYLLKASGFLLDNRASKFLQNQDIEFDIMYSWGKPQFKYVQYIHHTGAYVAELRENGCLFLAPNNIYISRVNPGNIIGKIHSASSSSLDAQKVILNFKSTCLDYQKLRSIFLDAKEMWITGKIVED

Binder: B1
- binding result [1]: binds
- binding result [2]: binds

Binder: B2
- binding result [1]: binds
- binding result [3]: binds

Binder: B3
- binding result [2]: binds
